Target: MBP-M18BP1^1-140-8His (Homo sapiens (Human), UniProt Q6P0N0)
Experiment: amylose-resin pull-down, CBB-stained gel; Mis18β Yippee domain alone does not bind; binding requires the Mis18α:Mis18β Yippee heterodimer (Mis18α Yippee domain present)

MBP-M18BP1^1-140-8His, sequence (Q6P0N0 1-140, one chain of several): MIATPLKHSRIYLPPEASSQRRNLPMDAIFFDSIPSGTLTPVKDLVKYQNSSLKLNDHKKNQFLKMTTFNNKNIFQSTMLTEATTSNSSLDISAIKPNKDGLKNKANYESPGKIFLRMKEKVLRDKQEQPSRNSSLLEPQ

binding result: no binding
B1: 6His-Mis18β^73-189 (protein)
chain: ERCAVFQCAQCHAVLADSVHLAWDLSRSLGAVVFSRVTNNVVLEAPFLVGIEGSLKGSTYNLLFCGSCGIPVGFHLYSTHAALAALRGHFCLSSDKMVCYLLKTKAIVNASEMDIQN
